From patent US20160200782A1 (MOERAE MATRIX, published 2016)

T1: IKKα(h) (human, UniProt O15111 1-745, limits assumed)
T1 sequence (looked up): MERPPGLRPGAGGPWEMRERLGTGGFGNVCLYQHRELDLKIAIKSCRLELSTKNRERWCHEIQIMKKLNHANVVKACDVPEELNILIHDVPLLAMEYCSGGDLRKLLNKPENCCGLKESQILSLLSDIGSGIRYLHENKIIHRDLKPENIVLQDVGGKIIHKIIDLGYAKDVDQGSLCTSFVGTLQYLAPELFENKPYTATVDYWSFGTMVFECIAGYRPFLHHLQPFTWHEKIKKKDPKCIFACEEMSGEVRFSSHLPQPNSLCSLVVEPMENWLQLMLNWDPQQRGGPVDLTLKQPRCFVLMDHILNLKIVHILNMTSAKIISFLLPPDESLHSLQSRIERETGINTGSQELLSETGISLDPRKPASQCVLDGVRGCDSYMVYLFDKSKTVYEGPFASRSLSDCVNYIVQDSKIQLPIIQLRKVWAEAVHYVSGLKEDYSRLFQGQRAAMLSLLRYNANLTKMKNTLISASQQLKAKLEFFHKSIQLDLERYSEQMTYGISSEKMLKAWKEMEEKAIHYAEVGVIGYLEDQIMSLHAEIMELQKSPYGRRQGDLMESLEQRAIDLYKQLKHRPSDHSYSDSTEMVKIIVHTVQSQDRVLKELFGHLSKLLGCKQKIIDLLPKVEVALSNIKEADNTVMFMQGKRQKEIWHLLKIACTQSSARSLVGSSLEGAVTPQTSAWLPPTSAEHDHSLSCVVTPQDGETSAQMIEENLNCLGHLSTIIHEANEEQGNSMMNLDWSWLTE

T2: IRAK4(h) (human, UniProt Q9NWZ3 1-460, limits assumed)
T2 sequence (looked up): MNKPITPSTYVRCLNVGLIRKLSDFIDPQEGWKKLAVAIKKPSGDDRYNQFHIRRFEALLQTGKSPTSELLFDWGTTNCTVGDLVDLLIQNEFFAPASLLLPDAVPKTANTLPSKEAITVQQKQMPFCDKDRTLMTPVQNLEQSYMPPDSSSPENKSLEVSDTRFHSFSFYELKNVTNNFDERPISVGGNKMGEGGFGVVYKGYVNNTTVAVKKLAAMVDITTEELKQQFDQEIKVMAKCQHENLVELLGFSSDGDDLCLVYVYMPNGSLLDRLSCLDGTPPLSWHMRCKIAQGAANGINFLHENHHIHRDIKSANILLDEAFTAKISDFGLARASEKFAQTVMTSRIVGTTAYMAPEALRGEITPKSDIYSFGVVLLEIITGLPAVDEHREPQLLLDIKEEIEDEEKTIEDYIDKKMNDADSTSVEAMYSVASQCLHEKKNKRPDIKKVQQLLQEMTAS

T3: TAO1(h) (human, UniProt Q7L7X3 1-320, limits assumed)
T3 sequence (looked up): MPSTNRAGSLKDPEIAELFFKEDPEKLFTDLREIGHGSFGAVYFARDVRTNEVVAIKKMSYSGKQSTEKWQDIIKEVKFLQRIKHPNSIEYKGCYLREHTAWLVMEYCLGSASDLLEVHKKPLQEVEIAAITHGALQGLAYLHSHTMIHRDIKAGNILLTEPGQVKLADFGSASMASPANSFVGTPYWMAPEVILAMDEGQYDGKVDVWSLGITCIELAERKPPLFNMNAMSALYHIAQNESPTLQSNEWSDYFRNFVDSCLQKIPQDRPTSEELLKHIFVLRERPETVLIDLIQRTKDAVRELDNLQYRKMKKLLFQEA

B1: MMI-0300 (peptide)
peptide: FAKLAARLYRKALARQLGVAA
B2: MMI-0400 (peptide)
peptide: KAFAKLAARLYRKALARQLGVAA

How the values were obtained:
Assay in all cases: cell-based or functional assay
Ab1(Y253F)(h) = Ab1(Y253F)(h) (human, UniProt P00519 27-1130, limits assumed)
Sequence of Ab1(Y253F)(h) (P00519 27-1130 Y253F limits assumed): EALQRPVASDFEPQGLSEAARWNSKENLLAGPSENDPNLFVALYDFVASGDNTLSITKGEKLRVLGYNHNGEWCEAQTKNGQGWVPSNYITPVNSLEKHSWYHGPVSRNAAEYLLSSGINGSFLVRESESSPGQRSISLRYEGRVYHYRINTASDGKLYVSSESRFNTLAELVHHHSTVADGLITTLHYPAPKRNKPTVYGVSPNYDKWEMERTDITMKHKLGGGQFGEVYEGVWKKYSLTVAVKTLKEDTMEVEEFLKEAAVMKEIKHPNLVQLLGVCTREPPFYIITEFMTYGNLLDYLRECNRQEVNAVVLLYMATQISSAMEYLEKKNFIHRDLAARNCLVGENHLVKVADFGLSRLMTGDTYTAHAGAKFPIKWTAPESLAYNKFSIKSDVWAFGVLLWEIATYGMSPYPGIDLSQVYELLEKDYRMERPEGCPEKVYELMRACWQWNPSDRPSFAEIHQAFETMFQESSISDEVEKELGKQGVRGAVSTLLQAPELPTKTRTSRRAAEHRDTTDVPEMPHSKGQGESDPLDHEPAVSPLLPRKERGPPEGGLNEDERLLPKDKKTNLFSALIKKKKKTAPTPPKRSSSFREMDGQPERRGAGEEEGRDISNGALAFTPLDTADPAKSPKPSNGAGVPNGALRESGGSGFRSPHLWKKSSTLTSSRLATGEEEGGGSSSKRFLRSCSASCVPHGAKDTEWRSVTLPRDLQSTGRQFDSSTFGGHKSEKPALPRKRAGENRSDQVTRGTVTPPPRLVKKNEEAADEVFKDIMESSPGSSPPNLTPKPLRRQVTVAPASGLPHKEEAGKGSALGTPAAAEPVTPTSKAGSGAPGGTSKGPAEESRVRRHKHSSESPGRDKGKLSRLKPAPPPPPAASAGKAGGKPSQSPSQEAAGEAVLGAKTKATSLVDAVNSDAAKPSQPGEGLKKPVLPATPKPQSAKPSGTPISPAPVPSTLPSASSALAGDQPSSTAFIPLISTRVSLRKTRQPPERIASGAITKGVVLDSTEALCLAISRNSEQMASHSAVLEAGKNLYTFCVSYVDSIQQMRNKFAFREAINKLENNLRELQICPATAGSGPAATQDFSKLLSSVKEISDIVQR

IKKα(h) = target: T1, IKKα(h)
IRAK4(h) = target: T2, IRAK4(h)
MEK1(h) = MEK1(h) (human, UniProt Q02750 1-393, limits assumed)
Met(M1268T)(h) = Met(M1268T)(h) (human, UniProt P08581-2 974-1408, limits assumed)
Met(Y1248D)(h) = Met(Y1248D)(h) (human, UniProt P08581-2 974-1408, limits assumed)
MLCK(h) = MLCK(h) (human)
MLK1(h) = MLK1(h) (human, UniProt P80192 132-413, limits assumed)
Sequence of MLK1(h) (P80192 132-413 limits assumed): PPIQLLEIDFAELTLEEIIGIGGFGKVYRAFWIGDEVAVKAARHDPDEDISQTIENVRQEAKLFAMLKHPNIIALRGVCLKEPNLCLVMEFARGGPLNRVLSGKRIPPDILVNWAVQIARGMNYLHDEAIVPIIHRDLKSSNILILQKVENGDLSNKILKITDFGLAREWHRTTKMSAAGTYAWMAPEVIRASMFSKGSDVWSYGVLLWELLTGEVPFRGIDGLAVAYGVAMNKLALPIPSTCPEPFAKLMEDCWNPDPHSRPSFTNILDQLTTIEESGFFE

TAO1(h) = target: T3, TAO1(h)
CaMKIIβ(h) = CaMKIIβ(h) (human, UniProt Q13554 1-666, limits assumed)
Sequence of CaMKIIβ(h) (Q13554 whole entry): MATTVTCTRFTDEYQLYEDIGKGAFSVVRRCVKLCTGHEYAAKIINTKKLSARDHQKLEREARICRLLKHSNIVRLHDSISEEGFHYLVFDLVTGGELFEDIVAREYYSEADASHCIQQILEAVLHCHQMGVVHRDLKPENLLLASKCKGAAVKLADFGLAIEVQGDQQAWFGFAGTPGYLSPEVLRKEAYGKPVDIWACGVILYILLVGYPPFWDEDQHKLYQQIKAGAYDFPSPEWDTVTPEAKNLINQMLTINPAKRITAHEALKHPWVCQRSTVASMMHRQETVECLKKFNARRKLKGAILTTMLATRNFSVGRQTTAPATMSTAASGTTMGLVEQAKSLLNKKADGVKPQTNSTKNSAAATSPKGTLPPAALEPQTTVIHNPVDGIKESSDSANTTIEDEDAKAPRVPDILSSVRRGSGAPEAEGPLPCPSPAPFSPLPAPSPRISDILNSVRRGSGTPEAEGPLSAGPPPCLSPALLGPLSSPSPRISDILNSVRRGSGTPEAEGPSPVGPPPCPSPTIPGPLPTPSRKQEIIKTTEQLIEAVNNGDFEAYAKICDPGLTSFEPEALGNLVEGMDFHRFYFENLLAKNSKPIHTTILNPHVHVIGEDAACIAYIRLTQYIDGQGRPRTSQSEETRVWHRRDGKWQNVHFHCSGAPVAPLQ

CDK5/p25(h) = CDK5/p25(h) (human, UniProt Q00535 1-292; Q15078 99-307)
CSK(h) = CSK(h) (human, UniProt P41240 1-450)
EphA7(h) = EphA7(h) (human, UniProt Q15375 577-998, limits assumed)
Sequence of EphA7(h) (Q15375 577-998 limits assumed): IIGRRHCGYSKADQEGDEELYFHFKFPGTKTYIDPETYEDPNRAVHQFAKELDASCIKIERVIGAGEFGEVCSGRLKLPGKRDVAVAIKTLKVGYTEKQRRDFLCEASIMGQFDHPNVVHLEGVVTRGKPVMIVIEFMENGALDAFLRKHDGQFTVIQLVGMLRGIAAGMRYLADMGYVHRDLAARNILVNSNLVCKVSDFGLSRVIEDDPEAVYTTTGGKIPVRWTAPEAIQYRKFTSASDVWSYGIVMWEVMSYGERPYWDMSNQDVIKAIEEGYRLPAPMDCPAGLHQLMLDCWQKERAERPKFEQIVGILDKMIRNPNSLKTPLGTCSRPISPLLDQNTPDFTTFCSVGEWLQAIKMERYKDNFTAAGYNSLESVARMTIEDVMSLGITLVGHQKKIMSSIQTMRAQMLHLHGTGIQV
Further: test concentration or dose not given here.

| % activity (Ab1(Y253F)(h)) [%] | % activity (IKKα(h)) [%] | % activity (IRAK4(h)) [%] | % activity (MEK1(h)) [%] | % activity (Met(M1268T)(h)) [%] | % activity (Met(Y1248D)(h)) [%] | % activity (MLCK(h)) [%] | % activity (MLK1(h)) [%] | % activity (TAO1(h)) [%] | % activity (CaMKIIβ(h)) [%] | % activity (CDK5/p25(h)) [%] | % activity (CSK(h)) [%] | % activity (EphA7(h)) [%] | Binder |
| --- | --- | --- | --- | --- | --- | --- | --- | --- | --- | --- | --- | --- | --- |
| 86 | 93 | 59 | 77 | 255 | 102 | 2 | 40 | 82 | 2 | 89 | 49 | 159 | B1 |
| 78 | 87 | 59 | 77 | 265 | 31 | 1 | 33 | 73 | 11 | 92 | 16 | 222 | B2 |
